Results from patent publication US20140134202A1 (FOLIA BIOTECH, published 2014).

Target: the molecule itself
Test: gel filtration (Superdex 200), self-association into disks

B1: CP.DELTA.N5 PapMV coat protein (recombinant, N-terminal 5 amino acids deleted, alanine inserted at p (other)
chain: MASTPNIAFPAITQEQMSSIKVDPTSNLLPSQEQLKSVSTLMVAAKVPAASVTTVALELVNFCYDNGSSAYTTVTGPSSIPEISLAQLASIVKASGTSLRKFCRYFAPIIWNLRTDKMAPANWEASGYKPSAKFAAFDFFDGVENPAAMQPPSGLTRSPTQEERIANATNKQVHLFQAAAQDNNFASNSAFITKGQISGSTPTIQFLPPPE
notes: also called CPΔN5; CPΔN5 PapMV VLP
Q: Does B1 bind?
A: binds
